In US10919943B2, “Mutant proteins enabling agrochemical control of plant gene expression” (The Regents of the University of California, priority 2016, dated 2021):
Where a chain is given by its changes, count along the chain named. Names and notes keep the numbering of the source.

B1: F159R: PYR1 mutant (protein, UniProt O49686 1-191, looked up, variant F159R)
Abscisic acid receptor PYR1: MPSELTPEERSELKNSIAEFHTYQLDPGSCSSLHAQRIHAPPELVWSIVRRFDKPQTYKHFIKSCSVEQNFEMRVGCTRDVIVISGLPANTSTERLDILDDERRVTGFSIIGGEHRLTNYKSVTTVHRFEKENRIWTVVLESYVVDMPEGNSEDDTRMRADTVVKLNLQKLATVAEAMARNSGDGSGSQVT
B2: T162P: PYR1 mutant (protein, UniProt O49686 1-191, looked up, variant T162P)
Abscisic acid receptor PYR1: B1 Abscisic acid receptor PYR1 with R159F, T162P
B3: F61N: PYR1 mutant (protein, UniProt O49686 1-191, looked up, variant F61N)
Abscisic acid receptor PYR1: B1 Abscisic acid receptor PYR1 with F61N, R159F
B4: F159H: PYR1 mutant (protein, UniProt O49686 1-191, looked up, variant F159H)
Abscisic acid receptor PYR1: B1 Abscisic acid receptor PYR1 with R159H
B5: F159Y: PYR1 mutant (protein, UniProt O49686 1-191, looked up, variant F159Y)
Abscisic acid receptor PYR1: B1 Abscisic acid receptor PYR1 with R159Y
B6: F61P: PYR1 mutant (protein, UniProt O49686 1-191, looked up, variant F61P)
Abscisic acid receptor PYR1: B1 Abscisic acid receptor PYR1 with F61P, R159F
B7: F159K: PYR1 mutant (protein, UniProt O49686 1-191, looked up, variant F159K)
Abscisic acid receptor PYR1: B1 Abscisic acid receptor PYR1 with R159K
B8: K170P: PYR1 mutant (protein, UniProt O49686 1-191, looked up, variant K170P)
Abscisic acid receptor PYR1: B1 Abscisic acid receptor PYR1 with R159F, K170P
B9: F159D: PYR1 mutant (protein, UniProt O49686 1-191, looked up, variant F159D)
Abscisic acid receptor PYR1: B1 Abscisic acid receptor PYR1 with R159D
B10: T162E: PYR1 mutant (protein, UniProt O49686 1-191, looked up, variant T162E)
Abscisic acid receptor PYR1: B1 Abscisic acid receptor PYR1 with R159F, T162E
B11: F159W: PYR1 mutant (protein, UniProt O49686 1-191, looked up, variant F159W)
Abscisic acid receptor PYR1: B1 Abscisic acid receptor PYR1 with R159W
B12: F61S: PYR1 mutant (protein, UniProt O49686 1-191, looked up, variant F61S)
Abscisic acid receptor PYR1: B1 Abscisic acid receptor PYR1 with F61S, R159F
B13: F159G: PYR1 mutant (protein, UniProt O49686 1-191, looked up, variant F159G)
Abscisic acid receptor PYR1: B1 Abscisic acid receptor PYR1 with R159G
B14: F61Q: PYR1 mutant (protein, UniProt O49686 1-191, looked up, variant F61Q)
Abscisic acid receptor PYR1: B1 Abscisic acid receptor PYR1 with F61Q, R159F
B15: F159S: PYR1 mutant (protein, UniProt O49686 1-191, looked up, variant F159S)
Abscisic acid receptor PYR1: B1 Abscisic acid receptor PYR1 with R159S
B16: F159E: PYR1 mutant (protein, UniProt O49686 1-191, looked up, variant F159E)
Abscisic acid receptor PYR1: B1 Abscisic acid receptor PYR1 with R159E
B17: F61R: PYR1 mutant (protein, UniProt O49686 1-191, looked up, variant F61R)
Abscisic acid receptor PYR1: B1 Abscisic acid receptor PYR1 with F61R, R159F
B18: T162F: PYR1 mutant (protein, UniProt O49686 1-191, looked up, variant T162F)
Abscisic acid receptor PYR1: B1 Abscisic acid receptor PYR1 with R159F, T162F

Each molecule was assayed on HAB1 (assay: Yeast two hybrid of pBD-PYR1 site saturation mutants with pACT-HAB1 on 10 μM ABA, β-galactosidase staining). Conditions: S. cerevisiae Y190, 10 μM ABA; dead = lack of visible staining in comparison to wild type control.
Type: cell-based, Arabidopsis
Design: key: x: Mutations in PYR1 that disrupt ABA-induced binding to PYR1 to HAB1
Procedure, shortened: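 S. cerevisiae Y190 co-expressing GAL4-DNA-binding-domain–PYR1 mutants and GAL4-activation-domain–HAB1 were spotted on SD (-Leu, -Trp) agar with 10 μM (+)-ABA for 2 days at 30° C. Colonies were chloroform-lysed and stained for β-galactosidase. Mutants lacking visible staining relative to wild type were scored as non-binding.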

Row | Mutations in PYR1 that disrupt ABA-induced binding to PYR1 to HAB1 | Molecule
1 | x | B1
2 | x | B2
3 | x | B3
4 | x | B4
5 | x | B5
6 | x | B6
7 | x | B7
8 | x | B8
9 | x | B9
10 | x | B10
11 | x | B11
12 | x | B12
13 | x | B13
14 | x | B14
15 | x | B15
16 | x | B16
17 | x | B17
18 | x | B18
